The chains are these.
B1: Cyclin-dependent kinase 4 (Homo sapiens), P11802 (parent)
chain: MATSRYEPVAEIGVGAYGTVYKARDPHSGHFVALKSVRVPNGGGGGGGLPISTVREVALLRRLEAFEHPNVVRLMDVCATSRTDREIKVTLVFEHVDQDLRTYLDKAPPPGLPAETIKDLMRQFLRGLDFLHANCIVHRDLKPENILVTSGGTVKLADFGLARIYSYQMALTPVVVTLWYRAPEVLLQSTYATPVDMWSVGCIFAEMFRRKPLFCGNSEADQLGKIFDLIGLPPEDDWPRDVSLPRGAFPPRGPRPVQSVVPEMEESGAQLLLEMLTFNPHKRISAFRALQHSYLHKDEGNPE

Variants of B1 are the subject of the first assay. Particulars: with ccnd1_human CCND1, P24385.
Sequence of ccnd1_human CCND1, P24385 (P24385 whole entry): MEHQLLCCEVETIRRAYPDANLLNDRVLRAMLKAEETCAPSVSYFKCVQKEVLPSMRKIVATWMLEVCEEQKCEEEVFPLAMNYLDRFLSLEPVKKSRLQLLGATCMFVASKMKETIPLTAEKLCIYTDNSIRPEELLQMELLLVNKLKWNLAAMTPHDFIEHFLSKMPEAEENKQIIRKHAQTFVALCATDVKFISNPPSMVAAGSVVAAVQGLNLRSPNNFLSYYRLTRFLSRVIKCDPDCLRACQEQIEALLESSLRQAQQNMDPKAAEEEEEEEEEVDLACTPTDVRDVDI
As for MATSRYEPVAEIGVGAYGTVYKACDPHSGHFVALKSVRVPNGGGGGGGLPISTVREVALLRRLEAFEHPNVVRLMDVCATSRTDREIKVTLVFEHVDQDLRTYLDKAPPPGLPAETIKDLMRQFLRGLDFLHANCIVHRDLKPENILVTSGGTVKLADFGLARIYSYQMALTPVVVTLWYRAPEVLLQSTYATPVDMWSVGCIFAEMFRRKPLFCGNSEADQLGKIFDLIGLPPEDDWPRDVSLPRGAFPPRGPRPVQSVVPEMEESGAQLLLEMLTFNPHKRISAFRALQHSYLHKDEGNPE [R24C], the “effect of a mutation on the interaction” value is recorded as “with no effect”.

With MATSRYEPVAEIGVGAYGTVYKAHDPHSGHFVALKSVRVPNGGGGGGGLPISTVREVALLRRLEAFEHPNVVRLMDVCATSRTDREIKVTLVFEHVDQDLRTYLDKAPPPGLPAETIKDLMRQFLRGLDFLHANCIVHRDLKPENILVTSGGTVKLADFGLARIYSYQMALTPVVVTLWYRAPEVLLQSTYATPVDMWSVGCIFAEMFRRKPLFCGNSEADQLGKIFDLIGLPPEDDWPRDVSLPRGAFPPRGPRPVQSVVPEMEESGAQLLLEMLTFNPHKRISAFRALQHSYLHKDEGNPE [R24H], the “effect of a mutation on the interaction” value was “with no effect”.

Regarding MATSRYEPVAEIGVGAYGTVYKARDPHSGHFVALKSVRVPNGGGGGGGLPINTVREVALLRRLEAFEHPNVVRLMDVCATSRTDREIKVTLVFEHVDQDLRTYLDKAPPPGLPAETIKDLMRQFLRGLDFLHANCIVHRDLKPENILVTSGGTVKLADFGLARIYSYQMALTPVVVTLWYRAPEVLLQSTYATPVDMWSVGCIFAEMFRRKPLFCGNSEADQLGKIFDLIGLPPEDDWPRDVSLPRGAFPPRGPRPVQSVVPEMEESGAQLLLEMLTFNPHKRISAFRALQHSYLHKDEGNPE [S52N], the “effect of a mutation on the interaction” value was “with no effect”.

Another assay covers variants of B1. Particulars: with ccnd3_human CCND3, P30281.
Sequence of ccnd3_human CCND3, P30281 (P30281 whole entry): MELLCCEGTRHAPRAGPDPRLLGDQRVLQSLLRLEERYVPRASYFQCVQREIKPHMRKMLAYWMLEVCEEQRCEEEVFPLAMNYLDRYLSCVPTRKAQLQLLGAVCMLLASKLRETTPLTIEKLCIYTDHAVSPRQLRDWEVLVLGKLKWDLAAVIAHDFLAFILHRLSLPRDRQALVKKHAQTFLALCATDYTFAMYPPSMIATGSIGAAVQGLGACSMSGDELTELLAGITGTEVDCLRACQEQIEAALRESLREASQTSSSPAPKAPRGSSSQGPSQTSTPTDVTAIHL
On to MATSRYEPVAEIGVGAYGTVYKACDPHSGHFVALKSVRVPNGGGGGGGLPISTVREVALLRRLEAFEHPNVVRLMDVCATSRTDREIKVTLVFEHVDQDLRTYLDKAPPPGLPAETIKDLMRQFLRGLDFLHANCIVHRDLKPENILVTSGGTVKLADFGLARIYSYQMALTPVVVTLWYRAPEVLLQSTYATPVDMWSVGCIFAEMFRRKPLFCGNSEADQLGKIFDLIGLPPEDDWPRDVSLPRGAFPPRGPRPVQSVVPEMEESGAQLLLEMLTFNPHKRISAFRALQHSYLHKDEGNPE [R24C], for which the “effect of a mutation on the interaction” value is “with no effect”.

MATSRYEPVAEIGVGAYGTVYKAHDPHSGHFVALKSVRVPNGGGGGGGLPISTVREVALLRRLEAFEHPNVVRLMDVCATSRTDREIKVTLVFEHVDQDLRTYLDKAPPPGLPAETIKDLMRQFLRGLDFLHANCIVHRDLKPENILVTSGGTVKLADFGLARIYSYQMALTPVVVTLWYRAPEVLLQSTYATPVDMWSVGCIFAEMFRRKPLFCGNSEADQLGKIFDLIGLPPEDDWPRDVSLPRGAFPPRGPRPVQSVVPEMEESGAQLLLEMLTFNPHKRISAFRALQHSYLHKDEGNPE [R24H]: the “effect of a mutation on the interaction” value was “with no effect”.

As for MATSRYEPVAEIGVGAYGTVYKARDPHSGHFVALKSVRVPNGGGGGGGLPINTVREVALLRRLEAFEHPNVVRLMDVCATSRTDREIKVTLVFEHVDQDLRTYLDKAPPPGLPAETIKDLMRQFLRGLDFLHANCIVHRDLKPENILVTSGGTVKLADFGLARIYSYQMALTPVVVTLWYRAPEVLLQSTYATPVDMWSVGCIFAEMFRRKPLFCGNSEADQLGKIFDLIGLPPEDDWPRDVSLPRGAFPPRGPRPVQSVVPEMEESGAQLLLEMLTFNPHKRISAFRALQHSYLHKDEGNPE [S52N], the “effect of a mutation on the interaction” value is “with no effect”.

The variants in a further assay derive from B1. The note with it: with ccnd2_human CCND2, P30279.
Sequence of ccnd2_human CCND2, P30279 (P30279 whole entry): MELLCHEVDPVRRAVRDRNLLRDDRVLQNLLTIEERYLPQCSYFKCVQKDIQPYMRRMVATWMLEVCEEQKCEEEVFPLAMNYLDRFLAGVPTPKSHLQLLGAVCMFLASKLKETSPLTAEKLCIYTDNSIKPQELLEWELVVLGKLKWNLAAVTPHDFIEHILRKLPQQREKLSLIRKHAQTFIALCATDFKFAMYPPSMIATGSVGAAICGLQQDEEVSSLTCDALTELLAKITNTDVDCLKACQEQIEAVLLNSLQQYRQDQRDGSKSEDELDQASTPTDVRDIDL
For MATSRYEPVAEIGVGAYGTVYKACDPHSGHFVALKSVRVPNGGGGGGGLPISTVREVALLRRLEAFEHPNVVRLMDVCATSRTDREIKVTLVFEHVDQDLRTYLDKAPPPGLPAETIKDLMRQFLRGLDFLHANCIVHRDLKPENILVTSGGTVKLADFGLARIYSYQMALTPVVVTLWYRAPEVLLQSTYATPVDMWSVGCIFAEMFRRKPLFCGNSEADQLGKIFDLIGLPPEDDWPRDVSLPRGAFPPRGPRPVQSVVPEMEESGAQLLLEMLTFNPHKRISAFRALQHSYLHKDEGNPE [R24C], the “effect of a mutation on the interaction” value was “with no effect”.

Regarding MATSRYEPVAEIGVGAYGTVYKAHDPHSGHFVALKSVRVPNGGGGGGGLPISTVREVALLRRLEAFEHPNVVRLMDVCATSRTDREIKVTLVFEHVDQDLRTYLDKAPPPGLPAETIKDLMRQFLRGLDFLHANCIVHRDLKPENILVTSGGTVKLADFGLARIYSYQMALTPVVVTLWYRAPEVLLQSTYATPVDMWSVGCIFAEMFRRKPLFCGNSEADQLGKIFDLIGLPPEDDWPRDVSLPRGAFPPRGPRPVQSVVPEMEESGAQLLLEMLTFNPHKRISAFRALQHSYLHKDEGNPE [R24H], the “effect of a mutation on the interaction” value is given as “with no effect”.

As to MATSRYEPVAEIGVGAYGTVYKARDPHSGHFVALKSVRVPNGGGGGGGLPINTVREVALLRRLEAFEHPNVVRLMDVCATSRTDREIKVTLVFEHVDQDLRTYLDKAPPPGLPAETIKDLMRQFLRGLDFLHANCIVHRDLKPENILVTSGGTVKLADFGLARIYSYQMALTPVVVTLWYRAPEVLLQSTYATPVDMWSVGCIFAEMFRRKPLFCGNSEADQLGKIFDLIGLPPEDDWPRDVSLPRGAFPPRGPRPVQSVVPEMEESGAQLLLEMLTFNPHKRISAFRALQHSYLHKDEGNPE [S52N], the “effect of a mutation on the interaction” value is “with no effect”.

In the next assay the parent is B1. The note with it: with cdn2b_human CDKN2B.
Take MATSRYEPVAEIGVGAYGTVYKACDPHSGHFVALKSVRVPNGGGGGGGLPISTVREVALLRRLEAFEHPNVVRLMDVCATSRTDREIKVTLVFEHVDQDLRTYLDKAPPPGLPAETIKDLMRQFLRGLDFLHANCIVHRDLKPENILVTSGGTVKLADFGLARIYSYQMALTPVVVTLWYRAPEVLLQSTYATPVDMWSVGCIFAEMFRRKPLFCGNSEADQLGKIFDLIGLPPEDDWPRDVSLPRGAFPPRGPRPVQSVVPEMEESGAQLLLEMLTFNPHKRISAFRALQHSYLHKDEGNPE [R24C]: the “effect of a mutation on the interaction” value is listed as “with no effect”.

Take MATSRYEPVAEIGVGAYGTVYKAHDPHSGHFVALKSVRVPNGGGGGGGLPISTVREVALLRRLEAFEHPNVVRLMDVCATSRTDREIKVTLVFEHVDQDLRTYLDKAPPPGLPAETIKDLMRQFLRGLDFLHANCIVHRDLKPENILVTSGGTVKLADFGLARIYSYQMALTPVVVTLWYRAPEVLLQSTYATPVDMWSVGCIFAEMFRRKPLFCGNSEADQLGKIFDLIGLPPEDDWPRDVSLPRGAFPPRGPRPVQSVVPEMEESGAQLLLEMLTFNPHKRISAFRALQHSYLHKDEGNPE [R24H]: the “effect of a mutation on the interaction” value is on record as “with no effect”.

As for MATSRYEPVAEIGVGAYGTVYKARDPHSGHFVALKSVRVPNGGGGGGGLPINTVREVALLRRLEAFEHPNVVRLMDVCATSRTDREIKVTLVFEHVDQDLRTYLDKAPPPGLPAETIKDLMRQFLRGLDFLHANCIVHRDLKPENILVTSGGTVKLADFGLARIYSYQMALTPVVVTLWYRAPEVLLQSTYATPVDMWSVGCIFAEMFRRKPLFCGNSEADQLGKIFDLIGLPPEDDWPRDVSLPRGAFPPRGPRPVQSVVPEMEESGAQLLLEMLTFNPHKRISAFRALQHSYLHKDEGNPE [S52N], the “effect of a mutation on the interaction” value is recorded as “with no effect”.

The variants in another assay derive from B1. The note with it: with cdn2c_human CDKN2C.
Turning to MATSRYEPVAEIGVGAYGTVYKACDPHSGHFVALKSVRVPNGGGGGGGLPISTVREVALLRRLEAFEHPNVVRLMDVCATSRTDREIKVTLVFEHVDQDLRTYLDKAPPPGLPAETIKDLMRQFLRGLDFLHANCIVHRDLKPENILVTSGGTVKLADFGLARIYSYQMALTPVVVTLWYRAPEVLLQSTYATPVDMWSVGCIFAEMFRRKPLFCGNSEADQLGKIFDLIGLPPEDDWPRDVSLPRGAFPPRGPRPVQSVVPEMEESGAQLLLEMLTFNPHKRISAFRALQHSYLHKDEGNPE [R24C], the “effect of a mutation on the interaction” value is reported as “disrupting interaction strength”.

Consider MATSRYEPVAEIGVGAYGTVYKAHDPHSGHFVALKSVRVPNGGGGGGGLPISTVREVALLRRLEAFEHPNVVRLMDVCATSRTDREIKVTLVFEHVDQDLRTYLDKAPPPGLPAETIKDLMRQFLRGLDFLHANCIVHRDLKPENILVTSGGTVKLADFGLARIYSYQMALTPVVVTLWYRAPEVLLQSTYATPVDMWSVGCIFAEMFRRKPLFCGNSEADQLGKIFDLIGLPPEDDWPRDVSLPRGAFPPRGPRPVQSVVPEMEESGAQLLLEMLTFNPHKRISAFRALQHSYLHKDEGNPE [R24H], for which the “effect of a mutation on the interaction” value was “disrupting interaction strength”.

Consider MATSRYEPVAEIGVGAYGTVYKARDPHSGHFVALKSVRVPNGGGGGGGLPINTVREVALLRRLEAFEHPNVVRLMDVCATSRTDREIKVTLVFEHVDQDLRTYLDKAPPPGLPAETIKDLMRQFLRGLDFLHANCIVHRDLKPENILVTSGGTVKLADFGLARIYSYQMALTPVVVTLWYRAPEVLLQSTYATPVDMWSVGCIFAEMFRRKPLFCGNSEADQLGKIFDLIGLPPEDDWPRDVSLPRGAFPPRGPRPVQSVVPEMEESGAQLLLEMLTFNPHKRISAFRALQHSYLHKDEGNPE [S52N], for which the “effect of a mutation on the interaction” value is on record as “with no effect”.

The next assay covers variants of B1. Particulars: with ccnd2_human CCND2, P30279. This is another data set of the same source.
Regarding MATSRYEPVAEIGVGAYGTVYKACDPHSGHFVALKSVRVPNGGGGGGGLPISTVREVALLRRLEAFEHPNVVRLMDVCATSRTDREIKVTLVFEHVDQDLRTYLDKAPPPGLPAETIKDLMRQFLRGLDFLHANCIVHRDLKPENILVTSGGTVKLADFGLARIYSYQMALTPVVVTLWYRAPEVLLQSTYATPVDMWSVGCIFAEMFRRKPLFCGNSEADQLGKIFDLIGLPPEDDWPRDVSLPRGAFPPRGPRPVQSVVPEMEESGAQLLLEMLTFNPHKRISAFRALQHSYLHKDEGNPE [R24C], the “effect of a mutation on the interaction” value was “disrupting interaction strength”.

In a further assay the parent is B1. The note with it: with cdn2b_human CDKN2B. The source holds these as a separate data set.
With MATSRYEPVAEIGVGAYGTVYKAHDPHSGHFVALKSVRVPNGGGGGGGLPISTVREVALLRRLEAFEHPNVVRLMDVCATSRTDREIKVTLVFEHVDQDLRTYLDKAPPPGLPAETIKDLMRQFLRGLDFLHANCIVHRDLKPENILVTSGGTVKLADFGLARIYSYQMALTPVVVTLWYRAPEVLLQSTYATPVDMWSVGCIFAEMFRRKPLFCGNSEADQLGKIFDLIGLPPEDDWPRDVSLPRGAFPPRGPRPVQSVVPEMEESGAQLLLEMLTFNPHKRISAFRALQHSYLHKDEGNPE [R24H], the “effect of a mutation on the interaction” value is on record as “disrupting interaction strength”.
